Experimental data from publication PMC2517623, “The NDR/LATS Family Kinase Cbk1 Directly Controls Transcriptional Asymmetry” (PLoS Biology, 2008).

B1: GST-Ace2(122-150) S137D (domain or fragment)
chain: SGTAIFGFLGHNKTLDISSLQQSILNMSK
notes: source: E. coli BL21(DE3)RIL, immobilised from lysate on glutathione-sepharose and washed; not shown: GST, N-terminal, kept
B2: GST-Ace2(122-150) S122D (domain or fragment)
chain: DGTAIFGFLGHNKTLSISSLQQSILNMSK
notes: as for B1
B3: GST-Ace2(122-150), wild-type (domain or fragment)
chain: SGTAIFGFLGHNKTLSISSLQQSILNMSK
notes: as for B1
B4: GST-Ace2(122-150) F127V (domain or fragment)
chain: SGTAIVGFLGHNKTLSISSLQQSILNMSK
notes: as for B1

Target: His6-Crm1 (S. cerevisiae, UniProt P30822 1-1084)
Test: pull-down; GST fusions immobilised on glutathione-sepharose from E. coli lysate and washed five times in PBS/KMD; His6-Xpo1 (Crm1) 5 μM in 100 μl, 4 °C, 15 min; washed with TBST; SDS-PAGE, GelCode Blue; without Ran-GTP
Settings: both partners purified

Binder | binding result
B1 | binds
B2 | binds
B3 | binds
B4 | binds
